Measurements as given in US20120231006A1 (Amgen, published 2012).
Each block holds one binder with its values, some of them ahead of it.

What was measured:
[1] = biological target: T1, mOrai1-hOrai1 ECL2 (…) protein (human/mouse chimera, UniProt Q8BWG9 1-304 (mouse entry)); experiment: FACS, 293EBNA transfectants [D00030 FIG. 16D]
T1 construct: also called Ch
Excerpt: (§1) FIG. 16A-D illustrates the results of FACS analysis showing binding to the indicated mOrai1-hOrai1 ECL2 chimeric mutants expressed on the surface of HEK-293-EBNA cells. Transfected cells were stained first with recombinant monoclonal antibodies then counter-stained with a secondary phycoerythrin-labeled goat (“Gt”) anti-human (“Hu”) IgG F(ab′)₂ antibody fragment and visualized using FACS. In FIG. 16B and FIG. 16D, The values of Relative Fluorescence Intensity as Percent of Control (RFI-POC) are calculated from the relative fluorescence intensity geometric mean (Geo Mean). The geometric mean is an average calculated by multiplying a series of numbers and taking the nth root where n is the number of numbers in the series. It is a statistical average of a set of transformed numbers often used to represent a central tendency in a highly variable data set that minimizes the effects of extreme values.
(§2) Table 11A and Table 11B feature a schematic representation of the POC data from FIG. 16B and FIG. 16D, respectively, where the binding results are recorded as (+++) denoting binding POC from 40% to 100%, (++) for POC of 5% to less than 40%, (+) for POC from 1% to less than 5% and (−) as lack of binding with POC less than 1%.

[2] = biological target: T2, mOrai1-hOrai1 ECL2 (AESVIV) protein (human/mouse chimera, UniProt Q8BWG9 1-304 (mouse entry)); experiment: FACS, 293EBNA transfectants [D00030 FIG. 16D]
T2 construct: also called Ch
T2 sequence (Q8BWG9 other isoform, or with tags, fused parts or gaps): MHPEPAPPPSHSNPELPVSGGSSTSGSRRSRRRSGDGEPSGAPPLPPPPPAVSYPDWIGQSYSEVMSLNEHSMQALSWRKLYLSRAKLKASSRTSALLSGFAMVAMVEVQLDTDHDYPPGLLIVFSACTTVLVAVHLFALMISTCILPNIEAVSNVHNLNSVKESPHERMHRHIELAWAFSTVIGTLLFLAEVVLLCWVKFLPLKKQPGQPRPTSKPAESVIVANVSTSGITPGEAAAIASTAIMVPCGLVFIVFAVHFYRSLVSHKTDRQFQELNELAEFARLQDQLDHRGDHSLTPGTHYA
Excerpt: as §1, §2

[3] = biological target: T1, mOrai1-hOrai1 ECL2 (…) protein; experiment: FACS, 293EBNA, RFI-POC grade; parameters: concentration or dose not given beside the values
Excerpt: as §1, §2

[4] = biological target: T2, mOrai1-hOrai1 ECL2 (AESVIV) protein; experiment: FACS, 293EBNA, RFI-POC grade; parameters: concentration or dose not given beside the values
Excerpt: as §1, §2

[5] = biological target: T3, mOrai1-hOrai1 ECL2 chimeric protein (human/mouse chimera, UniProt Q8BWG9 1-304 (mouse entry)); experiment: FACS, 293EBNA transfectants [D00028 FIG. 16B]
T3 construct: mouse Orai1 with human ECL2; also called Ch
T3 sequence (Q8BWG9 other isoform, or with tags, fused parts or gaps mutant): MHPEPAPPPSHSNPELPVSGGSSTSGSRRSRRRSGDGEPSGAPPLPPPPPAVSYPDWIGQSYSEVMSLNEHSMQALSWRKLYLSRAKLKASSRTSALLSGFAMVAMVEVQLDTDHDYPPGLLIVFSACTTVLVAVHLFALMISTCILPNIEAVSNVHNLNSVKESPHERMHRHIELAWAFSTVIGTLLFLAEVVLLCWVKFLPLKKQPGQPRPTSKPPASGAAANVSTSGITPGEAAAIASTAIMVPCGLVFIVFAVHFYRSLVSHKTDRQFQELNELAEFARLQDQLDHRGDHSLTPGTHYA
Excerpt: as §1, §2

[6] = biological target: T4, mOrai1-hOrai1 ECL2 (VIV) protein (human/mouse chimera, UniProt Q8BWG9 1-304 (mouse entry)); experiment: FACS, 293EBNA transfectants [D00028 FIG. 16B]
T4 construct: also called Ch
T4 sequence (Q8BWG9 other isoform, or with tags, fused parts or gaps): as the sequence (Q8BWG9 other isoform, or with tags, fused parts or gaps mutant) above, with G221V, A222I, A223V counted along it
Excerpt: as §1, §2

[7] = biological target: T5, mOrai1-hOrai1 ECL2 (HSD) protein (human/mouse chimera, UniProt Q8BWG9 1-304 (mouse entry)); experiment: FACS, 293EBNA transfectants [D00028 FIG. 16B]
T5 construct: also called Ch
T5 sequence (Q8BWG9 other isoform, or with tags, fused parts or gaps): as the sequence (Q8BWG9 other isoform, or with tags, fused parts or gaps mutant) above, with V226H, T228D counted along it
Excerpt: as §1, §2

[8] = biological target: T6, hOrai1-mOrai1 ECL2 (…) protein (human/mouse chimera, UniProt Q96D31 1-301); experiment: FACS, 293EBNA transfectants [D00032 FIG. 17B]
T6 construct: also called Ch
T6 sequence (Q96D31 other isoform, or with tags, fused parts or gaps): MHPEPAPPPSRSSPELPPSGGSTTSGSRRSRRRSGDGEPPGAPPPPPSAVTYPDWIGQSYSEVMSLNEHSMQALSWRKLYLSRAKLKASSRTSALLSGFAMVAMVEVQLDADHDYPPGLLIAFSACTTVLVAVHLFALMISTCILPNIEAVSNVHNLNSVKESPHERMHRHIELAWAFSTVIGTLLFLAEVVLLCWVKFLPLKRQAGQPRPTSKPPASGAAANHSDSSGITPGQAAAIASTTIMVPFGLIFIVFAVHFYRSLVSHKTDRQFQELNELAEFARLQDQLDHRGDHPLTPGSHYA
Experimental: FACS binding analysis. Transfected 293EBNA cells transiently expressed hOrai1-mOrai1 ECL2 or mOrai1-hOrai1 ECL2 chimera. The transfected cells were harvested at 48 hours post-transfection. Cells transfected with pcDNA3.1 were used as negative controls. Cells were washed once with ice-cold 1×PBS, resuspended in ice-cold FACS buffer (1×D-PBS+2% goat serum), and 2×10⁵ cells in 100 μL were stained per antibody combination. All antibody incubation steps were performed on ice for 1 hour. […] Next, the unlabelled antibody was detected using goat F(ab′)₂ anti-mouse or anti-human IgG-phycoerythrin (IgG-PE), followed by a wash with 200 μL of ice-cold FACS buffer before flow cytometry analysis. Unstained cells and cells stained with detecting antibodies were used as negative controls. The values of relative level of fluorescence were calculated using FCS Express (De Novo Software) and mean values were calculated using log-transformed data (geometric mean). […]
Representative results of FACS analysis of binding to the mutant hOrai1-mOrai1 ECL2 chimera described above by exemplary anti-hOrai1 antibodies of the present invention are shown in FIG. 17A-D, Table 10A and Table 10B below. Table 10A (Campaign 1) and Table 10B (Campaign 2) show the gain in binding ability of exemplary monoclonal antibodies to hOrai 1-mOrai 1 ECL2 chimera mutants as determined by FACS.

T1 sequence (Q8BWG9 other isoform, or with tags, fused parts or gaps): as the sequence (Q8BWG9 other isoform, or with tags, fused parts or gaps mutant) above, with P218A, A219E, G221V, A222I, A223V, V226H, T228D counted along it

binding result [1]: binds
binding result [2]: binds
B1: mAb 2D2.1 (antibody, human IgG2, lambda, V domains shown)
VH: QVQLQQWGAGLLKPSETLSLTCAVYGGSFSGYYWSWIRQPPGKGLEWIGEIDHSGRINYNPALKSRLTISVDTSKNQFSLKLSSVTAADTAVYYCARAGSGGYEDWFDPWGQGTLVTVSS
VL: QSVLTQPPSVSGAPGQRVTISCTGSSSNIGAGYNVHWYQQFPRTDPKLLIYVYNIRPSGVPDRFSGSRSGTSASLAITGLQTEDEADYYCQSYDSSLSGVVFGGGTKLTVLG
notes: fully human IgG2 lambda, Campaign 1; also called mAb 2D.1

POC (percent of control, FACS Geo Mean relative to binding to Ch. 1) [3]: 1 to 5%
POC (percent of control, FACS Geo Mean relative to binding to Ch. 1) [4]: 1 to 5%
B2: mAb 5B1.1 (antibody, human IgG2, lambda, V domains shown)
VH: QVQLVQSGAEVKKPGASVKVSCKASGYTFTDYYINWVRQAPGQGLEWMGWINPNSGGSSYAQKFQGRVTMTRDTSISTAHMELIRLRSDDTAVYYCARERGGIEDWFDPWGQGTLVTVSS
VL: QSVLTQPPSVSGAPGQRVTISCTGSSSNIGAGYDVHWYQQLPGTAPKLLIYGNSNRPSGVPDRFSGSKSGTSASLAITKFQAEDEAVYYCQSYGSGLSGVVFGGGTKLTVLG
notes: fully human IgG2 lambda, Campaign 2; also called mAb 5Bl1.1

binding result [5]: binds
binding result [6]: binds
binding result [7]: binds
binding result [8]: binds
B3: mAb 2B4.1 (antibody, human IgG2, lambda, V domains shown)
VH: QVQLVQSGAEVKKPGASVKVSCKASGYTFTDYYMHWVRQAPGQGLEWMGWINPNSGGTNYVQKFQDRVTMTRDTSITTAYMELTRLRSDDTAVYYCAREEGDYGMDVWGQGTTVTVSS
VL: QSVLTQPPSVSGAPGQRVTISCTGSNSNIGTGYDVHWYQKLPGTAPRLLIYSHFNRPSGVPDRFSGSTSGTSASLAITGLQAEDEADYYCQSYDSSLSGSVFGGGTKLTVLG
